Data taken from patent US8620595B2, “Methods for determining the retention of peptides in reverse phase chromatography using linear solvent strength theory” (University of Manitoba, priority 2010, dated 2013).

assay: Determination of S from retention time shift Δ relative to P3 at two gradient slopes, nano-RP-HPLC MS of spiked tryptic digest; assay type: physicochemical; settings: experimental S value, LC-MS runs of model peptide mixture
Protocol: Proteins and protein digestion. Tryptic digests of two different protein mixtures were utilized. The “test peptide mixture” contained human proteins: albumin, transferrin, fibrinogen. The “model peptide mixture” contained bovine proteins: albumin, transferrin, fibrinogen, catalase. Equimolar mixtures of the proteins were prepared, reduced with DTT, alkylated with iodoacetamide and digested with sequencing-grade modified trypsin (Promega, Madison, Wis.). Prior to nano-LC MS/MS analysis, mixtures were diluted with buffer A (0.1% formic acid in water) and spiked with the 6 standard peptides P1-P6^24 for test mixture and the set of 11 model peptides (described elsewhere^23) for a model mixture. All dilutions were performed to provide an injection of ˜100 fmole of each component into the nanoRP-HPLC MS system.
(§1) Chromatography. All chromatographic experiments were conducted at a controlled temperature of 22-23° C. For isocratic measurement of the slope values, a micro-Agilent 1100 Series system (Agilent Technologies, Wilmington, Del.), was used with a 1 mm×100 mm 5 μm Luna C18(2) (Phenomenex, Torrance, Calif.) column and a UV detector operated at 214 nm. Both eluents A (water) and B (acetonitrile) contained 0.1% formic acid as ion-pairing modifier. Stock solutions of the 11 standard peptides (˜1 mg/ml) were prepared by dissolving each peptide in 1 ml of 0.1% FA in water or a 20% acetonitrile solution. Ten microliters of sample was injected. Individual peptides were diluted to provide ˜0.5-1 μg injection of each component using a 10 μl loop. The dead volume of the column and connecting tubings was determined by injecting a non-retained compound (water) and measuring the elution time of the negative peak at a 150 μL/min flow rate. Retention factors for isocratic elution were calculated using the formula: k=(tR−t0)/t0c; where tR is the retention time, t0 is the system (column and tubings) dead time, and t0c is the column dead time. Additional details of measuring S-values via constructing log k vs. φ plots are provided elsewhere.^24 The nano-LC MS/MS experiments were conducted using splitless Tempo LC system (Eksigent, Dublin, Calif.) with 20 μL sample injection via a 300 μm×5 mm PepMap100 (Dionex, Sunnyvale, Calif.) trap-column and a 100 μm×200 mm analytical column packed with 5 μm Luna C18(2) (Phenomenex, Torrance, Calif.). Tryptic digests of the mixtures were spiked with calibrating peptides (see Table 1) as described above, injected on the trap-column using buffer A as a carrier and separated using 0.1875, 0.375 and 0.75 percent acetonitrile per minute linear gradients starting from 0.5% acetonitrile at 500 nL/min flow rate. The composition of both eluents A and B was identical to one described above for normal-flow system. Gradient programs consisted of a 0.5-40% linear increase of buffer B in 213.2, 106.6 and 53.3 minutes, respectively. After each run the gradient columns were washed with 80% B for 3 minutes and equilibrated with the starting A:B ratio for 18 minutes.
Mass spectrometry. A QStar Elite mass spectrometer (Applied Biosystems, Foster City, Calif.) equipped with a MicrolonSpray II source was used in standard MS/MS information dependent acquisition (IDA) mode for LC-ESI analyses. Protein identification was performed using Protein Pilot 3.0 (Applied Biosystems, Foster City, Calif.) with a restricted database containing target protein sequences and the sequences of standard peptides. Retention times of identified species (peak maxima) were assigned manually.
These two ways of measurement have been combined to provide a highly accurate and fast way of determining S for an extensive sets of peptides (see FIG. 3). First, precise isocratic measurement of S is performed in normal flow conditions with UV detection for a set of synthetic “S-calibrating” peptides. […]

Substance | Slope (experimental)
DIQYLPILK | 25.291
KKEEAPSLRPVPPPISGGGYR | 44.873
LLVAAHFR | 31.212
WCTISQPEWFK | 30.438
IQALLDK | 26.395
LLGGGSLSSSLHAAAFR | 35.968
LAVAAHFR | 34.392
LGPNYLQIPVNCPYR | 32.953
EDLIWK [tryptic peptide detected in the model peptide mixture] | 21.902
QEPERNECFLSHKDDSPDLPK | 45.147
FNSANDDNVTQVR | 38.415
NLLFNDNTECLAK | 28.81
TPIAVR | 33.313
VVWCAVGPEEQK | 29.603
VLDALDSIK | 26.128
AEFVEVTK | 29.046
MKGLIDEVDQDFTSR | 33.2
EPYFGYSGAFK | 28.713
AMTNLR | 32.841
KPVTEAQSCHLAVAPNHAVVSR | 49.479
LLVLLHFR | 27.548
MSTITGPVPR | 32.509
YLYEIAR | 27.362
LASAAHFR | 38.571
CGLVPVLAENYK | 27.604
SNLQLLR | 24.614
LAGSASAHAFR | 40.64
ALEHKVDLEDYK | 39.365
THFSGDVQR | 42.53

same assay, conditions: experimental S, LC-MS runs of model peptide mixture, formic acid

Substance | Slope (experimental)
DSADGFLK | 22.49
HMDGYGSHTFK | 41.758
AAQKPDVLTTGGGNPVGDK | 41.223
QSPVDIDTK | 31.703
INLLQK | 24.664
KPPDADGCLHADPDLGVLCPTGCK | 40.448
LGGGGGGDFR | 31.043
KFWGK | 27.604
TGQIFK | 24.984

same assay, conditions: model peptide mixture (tryptic digest of bovine proteins), 0.75 and 0.1875% acetonitrile per minute gradients, formic acid, S from Δ vs. S curve of S-calibrating peptides

Substance | experimental S-value
EDLIWK [tryptic peptide detected in the model peptide mixture] | 21.9

assay: Isocratic elution measurement of slope S (log k vs. φ plots), RP-HPLC with UV detection; assay type: physicochemical; settings: Luna C18(2) column, water/acetonitrile with 0.1% formic acid, 22-23° C.
Protocol: as §1
Accordingly, for the determination of S-values of the set of synthetic peptides we used an isocratic elution procedure, despite it being extremely labor intense.^23 Isocratic measurements consist of determining retention times of peptides at several constant acetonitrile concentrations and plotting experimental Eqn. 1 for each peptide.
These two ways of measurement have been combined to provide a highly accurate and fast way of determining S for an extensive sets of peptides (see FIG. 3). First, precise isocratic measurement of S is performed in normal flow conditions with UV detection for a set of synthetic “S-calibrating” peptides. Similar to the previously described peptide mixture P1-P6 designed to cover wide range of hydrophobicities, these peptides were chosen to cover wide range of S-values (Table 1). Second—a tryptic digest of the bovine proteins mixture (model mixture) is spiked with the “S-calibrating” peptides and run under two different gradient slopes in nano-flow RP-HPLC MS: 0.75 and 0.1875% acetonitrile per minute in our case. Third—retention times are assigned for all identified species. Fourth—retention time shifts in acetonitrile percentage (ACN %) units relative to P3 were determined as: Δ=(tR 0.75−tRP3 0.75)*0.75−(tR 0.1875−tRP3 0.1875)*0.1875 (3); where tR 0.75 and tRP3 0.75 are the retention times of any peptide and reference P3 at 0.75% per minute, and tR 0.1875 and tRP3 0.1875 are the retention times of any peptide and reference P3 at 0.1875% acetonitrile per minute gradient, respectively. Fifth—an experimental Δ vs. S curve was plotted for S-calibrating peptides (FIG. 3). Sixth—S values were extracted from this dependence for all peptides observed in both nano-RP-HPLC MS runs by extrapolation of experimental Δ on this plot.

Substance | Slope (S in the basic LSS equation)
LLSLADFG [Peptide 8, synthetic S-calibrating peptide] | 19.2
LLLGGDFR [Peptide 3, synthetic S-calibrating peptide] | 21.46
LGGGGGGDFR [Peptide 1, synthetic S-calibrating peptide] | 28.2
LAGGGSASSSAHAAAFR [Peptide 11, synthetic S-calibrating peptide] | 44.66
LAGGGSASSSADAAAFR [Peptide 9, synthetic S-calibrating peptide] | 34.8
LLGGGGDFR [Peptide 2] | 24.76
LASAAHFR [Peptide 7, synthetic S-calibrating peptide] | 35.59
LLLLLDFR [Peptide 5, synthetic S-calibrating peptide] | 22.76
LASAADFR [Peptide 6, synthetic S-calibrating peptide] | 27.07
LLLLDFR [Peptide 4, synthetic S-calibrating peptide] | 21.78
LLGGSLSSLHAAFR [Peptide 10, synthetic S-calibrating peptide] | 33.81

same assay, conditions: Luna C18(2) column, water/acetonitrile with 0.1% formic acid, 22-23° C., listed as P3

Substance | Slope (S in the basic LSS equation)
LLGGGGDFR [Peptide 2] | 24.76
